{"source": "paper doi:10.1101/2020.07.15.204859", "binders": {"B1": {"name": "S. Typhimurium 14028S HNS (STM14_2116), P0A1S2 1-137 (natural protein)", "chain": "MSEALKILNNIRTLRAQARECTLETLEEMLEKLEVVVNERREEESAAAAEVEERTRKLQQYREMLIADGIDPNELLNSMAAAKSGTKAKRAARPAKYSYVDENGETKTWTGQGRTPAVIKKAMEEQGKQLEDFLIKE"}}, "target": "T1, S. Typhimurium 14028S HNS (STM14_2116) (Salmonella enterica serovar Typhimurium 14028S), P0A1S2", "T1 chain": "B1 chain", "assay": "SEC", "conditions": "remark: other sources report otherwise"}
{"binder": "B1", "values": [{"measurement": "stoichiometry N", "value": 2}]}
